Assays:
Assay in all cases: SPR; set-up for the IgG1 comparator not stated
Human CD64 (human) = Human CD64 (human) (UniProt P12314)
Human CD32a (human) = Human CD32a (human) (UniProt P12318)
Human CD16a (human) = Human CD16a (human) (UniProt P08637)
Human CD16b (human) = Human CD16b (human) (UniProt O75015)
Human CD32b (human) = Human CD32b (human) (UniProt P31994)
Sequence of Human CD32b (human) (P31994 46-217 limits assumed): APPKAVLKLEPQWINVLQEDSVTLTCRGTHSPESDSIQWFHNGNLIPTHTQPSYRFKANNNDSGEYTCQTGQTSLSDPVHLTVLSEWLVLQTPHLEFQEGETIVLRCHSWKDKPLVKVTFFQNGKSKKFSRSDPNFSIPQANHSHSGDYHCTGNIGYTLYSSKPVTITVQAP

Sequence of Human CD64 (human) (P12314 16-288 limits assumed): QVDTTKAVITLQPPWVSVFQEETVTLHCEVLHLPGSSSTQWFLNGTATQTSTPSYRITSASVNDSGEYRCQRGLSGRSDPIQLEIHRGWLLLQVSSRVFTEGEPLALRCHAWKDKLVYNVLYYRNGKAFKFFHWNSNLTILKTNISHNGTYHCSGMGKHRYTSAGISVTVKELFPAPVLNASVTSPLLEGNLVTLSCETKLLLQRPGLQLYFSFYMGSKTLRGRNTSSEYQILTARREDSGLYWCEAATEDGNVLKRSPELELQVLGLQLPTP
Sequence of Human CD16a (human) (P08637 17-208 limits assumed): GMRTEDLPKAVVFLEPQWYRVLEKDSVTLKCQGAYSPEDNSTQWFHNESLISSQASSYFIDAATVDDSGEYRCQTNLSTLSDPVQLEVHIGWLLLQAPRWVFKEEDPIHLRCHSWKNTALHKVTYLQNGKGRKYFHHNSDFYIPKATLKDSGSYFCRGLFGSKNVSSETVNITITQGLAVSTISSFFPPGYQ
Sequence of Human CD16b (human) (O75015 17-200 limits assumed): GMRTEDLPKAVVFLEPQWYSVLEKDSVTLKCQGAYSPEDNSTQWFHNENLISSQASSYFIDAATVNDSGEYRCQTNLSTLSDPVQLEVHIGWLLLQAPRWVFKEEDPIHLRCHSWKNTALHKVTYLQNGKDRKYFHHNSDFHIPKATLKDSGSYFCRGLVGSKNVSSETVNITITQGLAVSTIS
Sequence of Human CD32a (human) (P12318 36-218 limits assumed): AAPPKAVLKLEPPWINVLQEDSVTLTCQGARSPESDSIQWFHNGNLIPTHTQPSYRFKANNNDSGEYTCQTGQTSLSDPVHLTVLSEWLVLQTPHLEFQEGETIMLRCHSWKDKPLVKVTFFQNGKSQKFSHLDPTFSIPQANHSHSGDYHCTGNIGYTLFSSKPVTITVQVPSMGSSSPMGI

Full length human IgG1 antibody
Kd (Human CD64 (human)): 0.24 nM | Kd (Human CD32a (human)): 379 nM | Kd (Human CD16a (human)): 630 nM | Kd (Human CD16b (human)): 2410 nM | Kd (Human CD32b (human)): 1180 nM

Source: patent US20160369002A1
